Key:
Experiment in all cases: pyrophosphatase-coupled Pi release assay
[1] = substrate: Cc1cn([C@H]2C[C@H](O)[C@@H](COP(=O)(O)OP(=O)(O)OP(=O)(O)O)O2)c(=O)[nH]c1=O; format: biochemical, Escherichia coli; settings: 2 mM Co2+, 37°C
Excerpt: (§1) pyrophosphatase-coupled Pi release assay on YhdE

[2] = substrate: Cc1cn([C@@H]2O[C@H](COP(=O)(O)OP(=O)(O)OP(=O)(O)O)[C@@H](O)[C@H]2O)c(=O)nc1N; format: biochemical, Escherichia coli; settings: 2 mM Co2+, 37°C
Excerpt: as §1

[3] = substrate: Cc1cn([C@@H]2O[C@H](COP(=O)(O)OP(=O)(O)OP(=O)(O)O)[C@@H](O)[C@H]2O)c(=O)[nH]c1=O; format: biochemical, Escherichia coli; settings: 2 mM Co2+, 37°C
Excerpt: as §1

[4] = substrate: O=c1[nH]cc([C@@H]2O[C@H](COP(=O)(O)OP(=O)(O)OP(=O)(O)O)[C@@H](O)[C@H]2O)c(=O)[nH]1; format: biochemical, Escherichia coli; settings: 2 mM Co2+, 37°C
Excerpt: as §1

[5] = substrate: Cc1cn([C@@H]2O[C@H](COP(=O)(O)OP(=O)(O)OP(=O)(O)O)[C@@H](O)[C@H]2O)c(=O)[nH]c1=O; format: biochemical, Homo sapiens; settings: 2 mM Co2+, 37°C
Excerpt: (§2) pyrophosphatase-coupled Pi release assay on ASMTL-Maf

[6] = substrate: CNc1ccn([C@H]2C[C@H](O)[C@@H](COP(=O)(O)OP(=O)(O)OP(=O)(O)O)O2)c(=O)n1; format: biochemical, Homo sapiens; settings: 2 mM Co2+, 37°C
Excerpt: as §2

[7] = substrate: Nc1ccn([C@@H]2O[C@H](COP(=O)(O)OP(=O)(O)OP(=O)(O)O)[C@@H](O)[C@H]2O)c(=O)n1; format: biochemical, Homo sapiens; settings: 2 mM Co2+, 37°C
Excerpt: as §2

[8] = substrate: Nc1nc2c([nH]c(=O)n2[C@@H]2O[C@H](CO[P@@](=O)(O)O[P@@](=O)(O)OP(=O)(O)O)[C@@H](O)[C@H]2O)c(=O)[nH]1; format: biochemical, Homo sapiens; settings: 2 mM Co2+, 37°C
Excerpt: as §2

[9] = substrate: C[n+]1cn([C@@H]2O[C@H](COP(=O)(O)OP(=O)(O)OP(=O)(O)O)[C@@H](O)[C@H]2O)c2nc(N)[nH]c(=O)c21; format: biochemical, Salmonella enterica; settings: 2 mM Co2+, 37°C
Excerpt: pyrophosphatase-coupled Pi release assay on STM1189

[10] = substrate: C[n+]1cn([C@@H]2O[C@H](COP(=O)(O)OP(=O)(O)OP(=O)(O)O)[C@@H](O)[C@H]2O)c2nc(N)[nH]c(=O)c21; format: biochemical, Escherichia coli; settings: 2 mM Co2+, 37°C
Excerpt: pyrophosphatase-coupled Pi release assay on YceF

[11] = substrate: Cc1cn([C@@H]2O[C@H](COP(=O)(O)OP(=O)(O)OP(=O)(O)O)[C@@H](O)[C@H]2O)c(=O)[nH]c1=O; format: biochemical, Saccharomyces cerevisiae; settings: 2 mM Co2+, 30°C
Excerpt: (§3) pyrophosphatase-coupled Pi release assay on YOR111W

[12] = substrate: O=c1[nH]cc([C@@H]2O[C@H](COP(=O)(O)OP(=O)(O)OP(=O)(O)O)[C@@H](O)[C@H]2O)c(=O)[nH]1; format: biochemical, Saccharomyces cerevisiae; settings: 2 mM Co2+, 30°C
Excerpt: as §3

[13] = substrate: O=c1ccn([C@@H]2O[C@H](COP(=O)(O)OP(=O)(O)OP(=O)(O)O)[C@@H](O)[C@H]2O)c(=O)[nH]1; format: biochemical, Saccharomyces cerevisiae; settings: 2 mM Co2+, 30°C
Excerpt: as §3

[14] = substrate: Cc1cn([C@@H]2O[C@H](COP(=O)(O)OP(=O)(O)OP(=O)(O)O)[C@@H](O)[C@H]2O)c(=O)nc1N; format: biochemical, Bacillus subtilis; settings: 2 mM Co2+, 30°C
Excerpt: (§4) pyrophosphatase-coupled Pi release assay on BSU28050

[15] = substrate: Cc1cn([C@@H]2O[C@H](COP(=O)(O)OP(=O)(O)OP(=O)(O)O)[C@@H](O)[C@H]2O)c(=O)[nH]c1=O; format: biochemical, Bacillus subtilis; settings: 2 mM Co2+, 30°C
Excerpt: as §4

[16] = substrate: O=c1[nH]cc([C@@H]2O[C@H](COP(=O)(O)OP(=O)(O)OP(=O)(O)O)[C@@H](O)[C@H]2O)c(=O)[nH]1; format: biochemical, Bacillus subtilis; settings: 2 mM Co2+, 30°C
Excerpt: as §4

[17] = substrate: Nc1ccn([C@@H]2O[C@H](COP(=O)(O)OP(=O)(O)OP(=O)(O)O)[C@@H](O)[C@H]2O)c(=O)n1; format: biochemical, Bacillus subtilis; settings: 2 mM Co2+, 30°C
Excerpt: as §4

B1: YhdE (Escherichia coli K-12) (protein)
chain: MTSLYLASGSPRRQELLAQLGVTFERIVTGIEEQRQPQESAQQYVVRLAREKARAGVAQTAKDLPVLGADTIVILNGEVLEKPRDAEHAAQMLRKLSGQTHQVMTAVALADSQHILDCLVVTDVTFRTLTDEDIAGYVASDEPLDKAGAYGIQGLGGCFVRKINGSYHAVVGLPLVETYELLSNFNALREKRDKHDG
notes: full-length recombinant, expressed in E. coli; predicted monomer mass 24 kDa; mixture of dimers and tetramers
With B1 the Km [1] was 53.0 ± 2.0 µM, the kcat [1] was 15.4 ± 0.3 s⁻¹ and the kcat/Km [1] was 290000 M⁻¹ s⁻¹. For the same protein, the Km [2] was 44.8 ± 2.2 µM, the kcat [2] was 9.2 ± 0.2 s⁻¹ and the kcat/Km [2] was 210000 M⁻¹ s⁻¹. The Km [3] was 32.0 ± 2.2 µM, the kcat [3] was 18.2 ± 0.7 s⁻¹ and the kcat/Km [3] was 570000 M⁻¹ s⁻¹. For the same protein, the Km [4] was 47.2 ± 1.5 µM, the kcat [4] was 10.5 ± 0.2 s⁻¹ and the kcat/Km [4] was 220000 M⁻¹ s⁻¹.

B2: ASMTL-Maf (Homo sapiens) (protein)
chain: MVLCPVIGKLLHKRVVLASASPRRQEILSNAGLRFEVVPSKFKEKLDKASFATPYGYAMETAKQKALEVANRLYQKDLRAPDVVIGADTIVTVGGLILEKPVDKQDAYRMLSRLSGREHSVFTGVAIVHCSSKDHQLDTRVSEFYEETKVKFSELSEELLWEYVHSGEPMDKAGGYGIQALGGMLVESVHGDFLNVVGFPLNHFCKQLVKLYYPPRPEDLRRSVKHDSIPAADTFEDLS
notes: N-terminal Maf domain, residues 1-239, recombinant from E. coli; dimer
B2 gave a Km [5] of 16.1 ± 1.5 µM, a kcat [5] of 1.5 ± 0.1 s⁻¹ and a kcat/Km [5] of 93000 M⁻¹ s⁻¹. The Km [6] was 10.3 ± 0.7 µM, the kcat [6] was 0.3 ± 0.01 s⁻¹ and the kcat/Km [6] was 29000 M⁻¹ s⁻¹. For the same protein, the Km [7] was 17.4 ± 0.8 µM, the kcat [7] was 0.8 ± 0.02 s⁻¹ and the kcat/Km [7] was 46000 M⁻¹ s⁻¹. The Km [8] was 10.7 ± 0.6 µM, the kcat [8] was 0.2 ± 0.01 s⁻¹ and the kcat/Km [8] was 19000 M⁻¹ s⁻¹.

B3: STM1189 (Salmonella enterica subsp. enterica serovar Typhimurium str. LT2) (protein)
chain: MPRLILASTSPWRRALLEKLTIPFECAAPDVDETPMPGEAPRQLVLRLAQAKAQSLAARFPNHLIIGSDQICVLDGEITGKPLTEEKARQQLAKASGNIVTFYTGLALYNSASGHLQTEVEPFDVHFRHLSEAEIDDYVRKEHPLHCAGSFKSEGLGIALFERLEGRDPNTLIGLPLIALCQMLRREGFNPLQQ
notes: full-length recombinant, expressed in E. coli
With B3 the Km [9] was 30.9 ± 1.2 µM, the kcat [9] was 1.5 ± 0.1 s⁻¹ and the kcat/Km [9] was 49000 M⁻¹ s⁻¹.

B4: YceF (Escherichia coli K-12) (protein)
chain: MPKLILASTSPWRRALLEKLQISFECAAPEVDETPRSDESPRQLVLRLAQEKAQSLASRYPDHLIIGSDQVCVLDGEITGKPLTEENARLQLRKASGNIVTFYTGLALFNSANGHLQTEVEPFDVHFRHLSEAEIDNYVRKEHPLHCAGSFKSEGFGITLFERLEGRDPNTLVGLPLIALCQMLRREGKNPLMG
notes: full-length recombinant, expressed in E. coli; mixture of monomers and dimers
With B4 the Km [10] was 32.8 ± 3.1 µM, the kcat [10] was 1.2 ± 0.1 s⁻¹ and the kcat/Km [10] was 37000 M⁻¹ s⁻¹.

B5: YOR111W (Saccharomyces cerevisiae S288C) (protein)
chain: MSGNSQLPPDVIGFICSKYDIILASTSPRRYEILHDIMGITDLKTMVSTFEENLDKMNYSTDPIGYVCDTSWHKAQNIIEILTDYEDENPNEIDKPKLIICADTIIIDKSGRIYEKPKTKEVQKKFLMKFCYEDDEPVNVVTAVTLIKWYGRENFELVPFRDETKVYFDNKIPLRILEEYVESGDGLEVGGGFKIQGQGAILIEKIEGDYYNVVGLPLNKTFKGLYAEANSI
notes: as for B3
Protein B5 has a Km [11] of 13.0 ± 0.3 µM, a kcat [11] of 2.2 ± 0.1 s⁻¹ and a kcat/Km [11] of 170000 M⁻¹ s⁻¹. The Km [12] was 20 ± 0.4 µM, the kcat [12] was 5.3 ± 0.1 s⁻¹ and the kcat/Km [12] was 270000 M⁻¹ s⁻¹. For the same protein, the Km [13] was 29.7 ± 1.4 µM, the kcat [13] was 2.6 ± 0.1 s⁻¹ and the kcat/Km [13] was 88000 M⁻¹ s⁻¹.

B6: BSU28050 (Bacillus subtilis subsp. subtilis str. 168) (protein)
chain: MTKPLILASQSPRRKELLDLLQLPYSIIVSEVEEKLNRNFSPEENVQWLAKQKAKAVADLHPHAIVIGADTMVCLDGECLGKPQDQEEAASMLRRLSGRSHSVITAVSIQAENHSETFYDKTEVAFWSLSEEEIWTYIETKEPMDKAGAYGIQGRGALFVKKIDGDYYSVMGLPISKTMRALRHFDIRA
notes: full-length recombinant, expressed in E. coli; dimer
In the case of B6, the Km [14] is reported as 7.8 ± 0.2 µM, the kcat [14] is reported as 8.5 ± 0.1 s⁻¹ and the kcat/Km [14] is reported as 1.1e+06 M⁻¹ s⁻¹. The Km [15] was 4.7 ± 0.2 µM, the kcat [15] was 2.4 ± 0.1 s⁻¹ and the kcat/Km [15] was 510000 M⁻¹ s⁻¹. The Km [16] was 5.7 ± 0.3 µM, the kcat [16] was 7.2 ± 0.2 s⁻¹ and the kcat/Km [16] was 1.3e+06 M⁻¹ s⁻¹. It also gave a Km [17] of 25.0 ± 0.8 µM, a kcat [17] of 7.1 ± 0.1 s⁻¹ and a kcat/Km [17] of 280000 M⁻¹ s⁻¹.

Source: paper PMC3899018, “Biochemical and Structural Studies of Conserved Maf Proteins Revealed Nucleotide Pyrophosphatases with a Preference for Modified Nucleotides” (Chemistry & Biology, 2013)
